The target of test [1] is T1, human FcγRIa on the cell surface (transfected CHO-S cells, M0/M1 macrophages, hMDM, FcγRI effector reporter … (human, UniProt P12314 16-374)).
T1 construct: whole, on cells; also called CD64
Briefly: flow cytometry on CHO-S cells transiently expressing human FcγRIa, PE goat anti-human IgG F(ab')2, % PE+ cells. Background: In flow cytometry, cells or beads pass a laser one at a time.

Test [2] addresses T2, recombinant His-tagged human FcγRIIIa, 176-Phe [F] / F158 variant (human, UniProt P08637 17-208).
T2 construct: also called FcγRIIIa-F; FcγRIIIa-F158
The test can be described thus: SPR (Biacore 8K), His-tagged FcγR captured on anti-His chip, antibody injected, binding response (RU), n=3. (In general: Surface plasmon resonance follows binding to a sensor surface in real time, without labels.)

Test [3] deals with T3, recombinant His-tagged human FcγRIIIa, 176-Val [V] / V158 variant (human, UniProt P08637 17-208).
T3 construct: also called FcγRIIIa-V; FcγRIIIa-V158
T3 sequence (P08637 other isoform, or with tags, fused parts or gaps mutant limits assumed): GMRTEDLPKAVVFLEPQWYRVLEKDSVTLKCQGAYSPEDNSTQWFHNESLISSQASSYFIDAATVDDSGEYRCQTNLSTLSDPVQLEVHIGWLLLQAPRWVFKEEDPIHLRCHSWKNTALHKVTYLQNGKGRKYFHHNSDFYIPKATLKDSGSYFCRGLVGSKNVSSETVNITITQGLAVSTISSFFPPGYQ
The test is described as above.

For test [4], the target named is cynomolgus monkey PD-1 on transfected CHO-S cells (cynomolgus monkey, UniProt B0LAJ3 25-288). Briefly: flow cytometry on CHO-S cells transiently transfected with cynomolgus monkey PD-1, PE goat anti-human IgG F(ab')2, gMFI (PE).
cynomolgus monkey PD-1 on transfected CHO-S cells, sequence (B0LAJ3 entry or part of it limits assumed): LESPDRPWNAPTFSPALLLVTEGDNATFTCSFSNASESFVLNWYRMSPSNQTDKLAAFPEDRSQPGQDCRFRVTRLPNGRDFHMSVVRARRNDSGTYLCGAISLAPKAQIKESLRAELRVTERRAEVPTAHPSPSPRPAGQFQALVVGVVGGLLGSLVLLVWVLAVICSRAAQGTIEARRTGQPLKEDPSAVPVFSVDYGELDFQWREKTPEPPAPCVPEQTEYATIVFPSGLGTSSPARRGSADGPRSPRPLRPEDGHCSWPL
In test [5] the target is T4, recombinant human neonatal Fc receptor FcRn (SinoBiological CT071-H27H-B) (human, UniProt P55899 24-297; P61769 21-119).
T4 construct: Composition of the bought protein is not described
The test can be described thus: SPR (Biacore 8K) at pH 6.0; FcRn captured by anti-His, antibody as analyte; average of three measurements; pH 6.0.

Test [6] has as its target T5, recombinant His-tagged human FcγRIIa, 167-His [H] / H131 variant (human, UniProt P12318 34-218, limits assumed).
T5 construct: catalogue numbers differ; also called FcγRIIa-H; FcγRIIa-H131
T5 sequence (looked up): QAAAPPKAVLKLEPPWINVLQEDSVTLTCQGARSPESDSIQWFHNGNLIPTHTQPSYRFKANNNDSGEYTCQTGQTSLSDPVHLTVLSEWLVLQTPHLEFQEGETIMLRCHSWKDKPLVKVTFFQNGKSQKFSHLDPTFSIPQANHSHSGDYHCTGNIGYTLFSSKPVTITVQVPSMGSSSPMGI
Briefly: SPR (Biacore 8K), His-tagged FcγR captured on anti-His chip, antibody injected, binding response (RU), n=3.

Test [7] concerns the target T6, recombinant His-tagged human FcγRIIa, 167-Arg [R] / R131 variant (human, UniProt P12318 34-218, limits assumed).
T6 construct: catalogue numbers differ; also called FcγRIIa-R; FcγRIIa-R131
T6 sequence (looked up): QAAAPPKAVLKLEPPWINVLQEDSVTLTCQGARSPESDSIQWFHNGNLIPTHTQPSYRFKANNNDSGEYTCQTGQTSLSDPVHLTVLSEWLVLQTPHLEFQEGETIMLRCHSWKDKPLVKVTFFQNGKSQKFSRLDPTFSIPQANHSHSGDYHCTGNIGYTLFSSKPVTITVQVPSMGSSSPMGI
Described as above.

Test [8] has as its target T7, recombinant His-tagged human FcγRIIb (human, UniProt P31994 43-217, limits assumed).
T7 sequence (looked up): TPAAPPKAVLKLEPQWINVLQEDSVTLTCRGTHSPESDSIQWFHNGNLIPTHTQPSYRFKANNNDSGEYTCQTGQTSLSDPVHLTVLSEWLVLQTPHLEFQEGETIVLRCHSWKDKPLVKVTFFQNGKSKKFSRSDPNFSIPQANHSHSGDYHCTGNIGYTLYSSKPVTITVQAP
The description is as above.

In test [9] the target is T8, human complement protein C1q (from normal human serum) (human, UniProt P02745 23-245; P02746 28-253; P02747 29-245).
T8 construct: Native C1q supplied as 20% normal human serum
T8 sequence (P02745 23-245, chain 1 of 3): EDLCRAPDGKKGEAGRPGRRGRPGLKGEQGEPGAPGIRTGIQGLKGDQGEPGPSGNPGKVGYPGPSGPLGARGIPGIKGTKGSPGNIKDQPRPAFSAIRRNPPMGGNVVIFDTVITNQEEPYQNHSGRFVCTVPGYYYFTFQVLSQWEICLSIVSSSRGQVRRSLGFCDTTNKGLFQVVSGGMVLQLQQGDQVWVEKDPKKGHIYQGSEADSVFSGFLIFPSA
T8 sequence (P02746 28-253, chain 2 of 3): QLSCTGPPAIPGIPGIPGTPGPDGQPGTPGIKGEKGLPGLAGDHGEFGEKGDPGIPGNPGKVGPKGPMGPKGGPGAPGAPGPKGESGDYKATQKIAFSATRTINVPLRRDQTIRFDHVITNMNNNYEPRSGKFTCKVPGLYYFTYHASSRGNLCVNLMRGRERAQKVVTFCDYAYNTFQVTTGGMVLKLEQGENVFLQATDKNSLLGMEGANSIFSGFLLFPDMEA
T8 sequence (P02747 29-245, chain 3 of 3): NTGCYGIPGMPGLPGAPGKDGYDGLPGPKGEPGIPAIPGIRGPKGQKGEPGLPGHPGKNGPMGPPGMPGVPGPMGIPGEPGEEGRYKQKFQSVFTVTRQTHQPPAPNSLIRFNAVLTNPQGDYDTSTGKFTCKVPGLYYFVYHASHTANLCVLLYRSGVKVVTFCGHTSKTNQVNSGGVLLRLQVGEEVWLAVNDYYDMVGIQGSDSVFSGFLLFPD
The test can be described thus: flow cytometry, C1q (20% normal human serum) binding to antibody bound on human T cells, FITC anti-C1q.

For test [10], the target named is T8, human complement protein C1q (from …). The test can be described thus: flow cytometry, C1q (20% normal human serum) binding to antibody bound on human T cells, FITC anti-C1q, median MFI FITC.
The target of test [11] is T9, recombinant cynomolgus monkey CD27-Fc fusion protein (R&D systems, Cat #9904-CD-100) (cynomolgus monkey, UniProt P26842 21-192 (human entry), limits assumed).
T9 construct: Bought protein; also called Cyno CD27-Fc; not shown: Fc part of the fusion; not described
T9 chain: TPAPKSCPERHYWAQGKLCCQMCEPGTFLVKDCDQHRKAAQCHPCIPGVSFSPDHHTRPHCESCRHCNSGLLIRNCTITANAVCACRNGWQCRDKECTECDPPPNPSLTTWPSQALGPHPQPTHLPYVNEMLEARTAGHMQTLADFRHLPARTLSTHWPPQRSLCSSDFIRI
The test can be described thus: BLI (Octet HTX); cyno CD27-Fc on AR2G sensor, antibody monovalent for CD27 in solution; 1:1 model. On the technique in general: Biolayer interferometry detects binding as a change in optical thickness at a sensor tip.

For test [12], the target named is T10, recombinant His-tagged human CD27 protein (Sino Biological, Cat #10039-H08B1) (human, UniProt P26842 20-192).
T10 construct: Bought protein; also called Human CD27-His; not shown: His tag
The test can be described thus: BLI (Octet HTX); CD27-His on anti-Penta-HIS sensor, antibody monovalent for CD27 in solution; 1:1 model.

T1 sequence (P12314 16-374): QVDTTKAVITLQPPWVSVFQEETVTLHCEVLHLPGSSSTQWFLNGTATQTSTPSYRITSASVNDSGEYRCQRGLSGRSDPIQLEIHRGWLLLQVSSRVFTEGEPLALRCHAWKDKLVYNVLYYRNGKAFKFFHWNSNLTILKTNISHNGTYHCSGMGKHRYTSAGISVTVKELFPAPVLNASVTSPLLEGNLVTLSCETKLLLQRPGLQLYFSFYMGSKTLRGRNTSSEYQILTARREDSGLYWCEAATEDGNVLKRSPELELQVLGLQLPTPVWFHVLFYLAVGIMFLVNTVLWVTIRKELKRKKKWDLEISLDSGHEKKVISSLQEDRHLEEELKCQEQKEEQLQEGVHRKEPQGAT
T2 sequence (P08637 17-208 limits assumed, change not shown): as the sequence (P08637 other isoform, or with tags, fused parts or gaps mutant limits assumed) above, with V160F counted along it

B1: pembrolizumab (antibody, human IgG4 S228P, kappa)
heavy: not shown
light: EIVLTQSPATLSLSPGERATLSCRASKGVSTSGYSYLHWYQQKPGQAPRLLIYLASYLESGVPARFSGSGSGTDFTLTISSLEPEDFAVYYCQHSRDLPLTFGGGTKVEIKRTVAAPSVFIFPPSDEQLKSGTASVVCLLNNFYPREAKVQWKVDNALQSGNSQESVTEQDSKDSTYSLSSTLTLSKADYEKHKVYACEVTHQGLSSPVTKSFNRGEC
notes: also called Keytruda
As to B1, the “EC50 (read off the curve)” value in [1] was roughly 0.8 µg/mL; in [4], roughly 0.05 µg/mL. Further, the binding result in [2] and in test [3] was “binds” in each case.

B2: nivolumab (antibody, human IgG4 S228P, kappa)
heavy: not shown
light: not shown
notes: also called Opdivo
With B2, the Kd in test [5] is 133 nM. Besides, the koff in test [5] amounted to 0.0689 s⁻¹. In addition, the kon in test [5] is 518000 M⁻¹ s⁻¹. For the same molecule, the binding result in [6], in test [7], in test [8] and in [3] was “binds” throughout. In addition, the half-maximal effective concentration (EC50 (read off the curve)) in test [1] was roughly 0.2 µg/mL.

B3: IgG1-CD27-A (wild-type IgG1 Fc) (antibody)
heavy: not shown
light: QSALTQPASVSGSPGQSITISCTGTSSDVYYYNYVSWYQQHPGRAPKLVIYDVSNRPSGVSNRFSGSKSGNTASLTISGLRAEDEADYYCSSYTVNRVWVFGGGTKLTVLGQPKAAPSVTLFPPSSEELQANKATLVCLISDFYPGAVTVAWKADSSPVKAGVETTTPSKQSNNKYAASSYLSLTPEQWKSHRSYSCQVTHEGSTVEKTVAPTECS
notes: also called WT IgG1-CD27-A; IgG-CD27-A; copies: 2 + 2
Turning to B3, the binding result in test [9] was “no binding (tested: 15 µg/mL)”.

B4: IgG1-CD27-A-E345R (antibody)
heavy: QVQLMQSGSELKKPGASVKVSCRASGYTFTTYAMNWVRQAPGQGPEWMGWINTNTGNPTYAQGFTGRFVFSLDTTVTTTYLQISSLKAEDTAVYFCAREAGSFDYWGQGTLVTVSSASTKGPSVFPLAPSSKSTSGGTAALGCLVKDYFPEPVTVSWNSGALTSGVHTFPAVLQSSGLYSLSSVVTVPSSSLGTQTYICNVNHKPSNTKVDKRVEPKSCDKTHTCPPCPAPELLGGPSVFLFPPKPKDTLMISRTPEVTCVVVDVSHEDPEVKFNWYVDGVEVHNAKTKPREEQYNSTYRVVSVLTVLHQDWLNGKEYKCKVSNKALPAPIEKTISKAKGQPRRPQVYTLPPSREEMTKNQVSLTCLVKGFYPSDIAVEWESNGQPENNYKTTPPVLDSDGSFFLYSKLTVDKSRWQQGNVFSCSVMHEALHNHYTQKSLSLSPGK
light: QSALTQPASVSGSPGQSITISCTGTSSDVYYYNYVSWYQQHPGRAPKLVIYDVSNRPSGVSNRFSGSKSGNTASLTISGLRAEDEADYYCSSYTVNRVWVFGGGTKLTVLGQPKAAPSVTLFPPSSEELQANKATLVCLISDFYPGAVTVAWKADSSPVKAGVETTTPSKQSNNKYAASSYLSLTPEQWKSHRSYSCQVTHEGSTVEKTVAPTECS
notes: Human IgG1 with E345R (Eu numbering); also called IgG-CD27-A-E345R; copies: 2 + 2
Turning to B4, in test [10], the binding result was “binds”.

B5: IgG1-CD27-A-E430G (antibody)
heavy: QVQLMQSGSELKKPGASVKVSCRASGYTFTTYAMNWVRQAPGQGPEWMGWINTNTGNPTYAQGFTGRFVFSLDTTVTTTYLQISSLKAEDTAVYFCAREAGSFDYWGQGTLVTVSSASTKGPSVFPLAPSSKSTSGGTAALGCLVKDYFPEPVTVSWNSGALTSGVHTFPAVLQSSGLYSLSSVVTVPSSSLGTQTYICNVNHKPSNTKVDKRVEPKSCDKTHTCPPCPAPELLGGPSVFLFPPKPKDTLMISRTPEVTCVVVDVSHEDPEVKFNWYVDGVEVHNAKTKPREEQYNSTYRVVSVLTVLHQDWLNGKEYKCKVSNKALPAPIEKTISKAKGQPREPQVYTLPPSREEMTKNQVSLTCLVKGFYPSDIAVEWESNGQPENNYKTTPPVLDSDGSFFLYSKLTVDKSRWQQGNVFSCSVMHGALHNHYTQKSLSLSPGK
light: QSALTQPASVSGSPGQSITISCTGTSSDVYYYNYVSWYQQHPGRAPKLVIYDVSNRPSGVSNRFSGSKSGNTASLTISGLRAEDEADYYCSSYTVNRVWVFGGGTKLTVLGQPKAAPSVTLFPPSSEELQANKATLVCLISDFYPGAVTVAWKADSSPVKAGVETTTPSKQSNNKYAASSYLSLTPEQWKSHRSYSCQVTHEGSTVEKTVAPTECS
notes: Human IgG1 with E430G (Eu numbering); copies: 2 + 2
On to B5, for which the “EC50 (read off the curve)” value in test [10] was roughly 0.03 µg/mL.

B6: IgG1-CD27-A as bispecific antibody with one CD27-specific Fab-arm and one non-binding Fab-arm (bispecific antibody)
chain 1: QVQLMQSGSELKKPGASVKVSCRASGYTFTTYAMNWVRQAPGQGPEWMGWINTNTGNPTYAQGFTGRFVFSLDTTVTTTYLQISSLKAEDTAVYFCAREAGSFDYWGQGTLVTVSS
chain 2: QSALTQPASVSGSPGQSITISCTGTSSDVYYYNYVSWYQQHPGRAPKLVIYDVSNRPSGVSNRFSGSKSGNTASLTISGLRAEDEADYYCSSYTVNRVWVFGGGTKLTVL
chain 3: QVQLVQSGAEVKKPGASVKVSCQASGYRFSNFVIHWVRQAPGQRFEWMGWINPYNGNKEFSAKFQDRVTFTADTSANTAYMELRSLRSADTAVYYCARVGPYSWDDSPQDNYYMDVWGKGTTVIVSSASTKGPSVFPLAPSSKSTSGGTAALGCLVKDYFPEPVTVSWNSGALTSGVHTFPAVLQSSGLYSLSSVVTVPSSSLGTQTYICNVNHKPSNTKVDKRVEPKSCDKTHTCPPCPAPEFEGGPSVFLFPPKPKDTLMISRTPEVTCVVVAVSHEDPEVKFNWYVDGVEVHNAKTKPREEQYNSTYRVVSVLTVLHQDWLNGKEYKCKVSNKALPAPIEKTISKAKGQPREPQVYTLPPSREEMTKNQVSLTCLVKGFYPSDIAVEWESNGQPENNYKTTPPVLDSDGSFFLYSRLTVDKSRWQQGNVFSCSVMHEALHNHYTQKSLSLSPG
chain 4: EIVLTQSPGTLSLSPGERATFSCRSSHSIRSRRVAWYQHKPGQAPRLVIHGVSNRASGISDRFSGSGSGTDFTLTITRVEPEDFALYYCQVYGASSYTFGQGTKLERKRTVAAPSVFIFPPSDEQLKSGTASVVCLLNNFYPREAKVQWKVDNALQSGNSQESVTEQDSKDSTYSLSSTLTLSKADYEKHKVYACEVTHQGLSSPVTKSFNRGEC
In the case of B6, in test [11], the Kd stood at 120 nM, the dissociation rate constant (koff) is 0.02 s⁻¹ and the kon was 170000 M⁻¹ s⁻¹. In test [12], the dissociation constant Kd was 130 nM, the koff is 0.018 s⁻¹ and the association rate constant (kon) turned out to be 130000 M⁻¹ s⁻¹.

B7: dostarlimab (antibody)
chain 1: not shown
chain 2: DIQLTQSPSFLSAYVGDRVTITCKASQDVGTAVAWYQQKPGKAPKLLIYWASTLHTGVPSRFSGSGSGTEFTLTISSLQPEDFATYYCQHYSSYPWTFGQGTKLEIKRTVAAPSVFIFPPSDEQLKSGTASVVCLLNNFYPREAKVQWKVDNALQSGNSQESVTEQDSKDSTYSLSSTLTLSKADYEKHKVYACEVTHQGLSSPVTKSFNRGEC
Take B7: the “EC50 (read off the curve)” value in [1] was roughly 0.2 µg/mL.

One may read the EC50 (read off the curve) as the midpoint of the concentration-response curve. As a reminder, the Kd is the concentration at which binding is half-saturated. The koff is a measure of how fast the partners let go of each other. Broadly, the kon is the rate constant with which the complex forms.

Values taken from US20260250404A1 (Genmab, published 2026).
